Reference: patent US6670328 (INSTITUT PASTEUR DE LILLE, dated 2003)

T1: CD2 on Jurkat cells (human, UniProt P06729 25-351)
T1 construct: whole, on cells
T1 sequence (looked up): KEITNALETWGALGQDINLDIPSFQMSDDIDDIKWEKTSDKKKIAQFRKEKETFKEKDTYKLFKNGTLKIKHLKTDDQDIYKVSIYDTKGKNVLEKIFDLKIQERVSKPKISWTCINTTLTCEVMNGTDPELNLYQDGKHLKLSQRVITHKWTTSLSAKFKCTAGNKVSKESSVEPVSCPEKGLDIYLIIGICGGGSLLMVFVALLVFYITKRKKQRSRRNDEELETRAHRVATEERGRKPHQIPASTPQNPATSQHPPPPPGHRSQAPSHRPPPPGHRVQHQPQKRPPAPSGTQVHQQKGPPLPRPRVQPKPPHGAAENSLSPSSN

B1: secreted ESM-1 protein (Endothelial Cell Specific Molecule-1), purified wild-type form (ligand)
chain: WSNNYAVDCPQHCDSSECKSSPRCKRTVLDDCGCCRVCAAGRGETCYRTVSGMDGMKCGPCLRCQPSNCEDPFGEEFGICKDCPYGTFGMDCRETCNCQSCICDRGTGKCLKFPFFQYSVTKSSNRFVSLTEHDMASGDGNIVREEVVKENAAGSPVMRKWLNPR
notes: The secreted form runs at about 50 kD and is described as glycosylated (a proteoglycan); also called ESM/WT; extracellular ESM-1

How the values were obtained:
[1] = molecular target: T2, LFA-1 (heterodimeric CD11a/CD18) (human, UniProt P20701 26-1170; P05107 23-769); experiment: competition on Jurkat cells at 4 C; HI111 at 1 microg/mL against 35S-labelled 3D-ICAM-1/Fc
T2 construct: whole, on cells; Endogenous LFA-1 on Jurkat cells (and on human PBMC) in the cell assays; In the BIAcore assay and the co-immunoprecipitations it was the whole heterodimer from octylthioglucoside lysates of Jurkat cells; also called LFA-1 molecule; LFA-1 counter receptor

CD2 on Jurkat cells = molecular target: T1, CD2 on Jurkat cells; experiment: co-immunoprecipitation with anti-CD2 mAb from lysates of Jurkat cells incubated with 300 ng/mL ESM-1; ESM-1 ELISA of eluate
Protocol: (§1) FIGS. 17A–B: An anti-CD11a mAb coimmunoprecipitates ESM-1 with LFA-1 and increases ESM-1 binding to Jurkat cells. A. Coimmunoprecipitation of ESM-1 with LFA-1 : Jurkat cells were incubated with ESM-1 for 1 hour at 4° C. and immunoprecipitations were done with different mAbs according to the procedure previously described (none, anti-ESM-1 (MEC15), anti-CD3, anti-CD11a (1), ie clone HI111, anti-CD11a (2), ie clone G43-25B anti-CD18, anti-CD44, anti-CD2). Beads were washed and eluted. ESM-1 contents from eluates were analyzed by a specific ELISA. B. Activation of the binding of ESM-1 by an anti-CD11a mAb: Jurkat cells were firstly incubated in binding medium with different mAbs (none, anti-CD11a (1), anti-CD11a (2), IgG control) for 1 h at room temperature and secondly with ESM-1 for 1 h at 4° C. Cells were washed and lysed. ESM-1 was quantified by a specific ELISA in lysates (n=5).

CD44 on Jurkat cells = molecular target: T3, CD44 on Jurkat cells (human, UniProt P16070 21-742); experiment: co-immunoprecipitation with anti-CD44 mAb from lysates of Jurkat cells incubated with 300 ng/mL ESM-1; ESM-1 ELISA of eluate
T3 construct: whole, on cells
Protocol: as §1

[2] = molecular target: T2, LFA-1 (heterodimeric CD11a/CD18); experiment: BIAcore, purified ESM-1 (5 concentrations, 50 to 300 nM) over LFA-1 from Jurkat lysate captured by immobilized HI111, 25 C, PBS with 1 mM MgCl2 and 1 mM MnCl2
Protocol: LFA-1 molecules from the Jurkat lysates could only be fixed by immuno-affinity procedure. 200 millions of Jurkat cells were lysed in 2 mL of lysis buffer (PBS, 1 mM MgCl2, 1 mM MnCl2, complete anti-proteases cocktail EDTA-free and 5 mM octylthioglucoside) for 30 min at 4° C. After removal of insoluble material by centrifugation and incubation in a sonication bath, the lysate was injected at a flow rate of 5 microL/min for 30 min at 25° C. in order to immobilize approximatively 1500 RU of LFA-1 molecules. Next, CD11a mAb (G43-25B), CD18 mAb and purified ESM-1 were diluted in running buffer (PBS, 1 mM MgCl2, 1 mM MnCl2) and injected at a flow rate of 5 microL/min for 5 min at 25° C. The association rate constant (ka) and the dissociation rate constant (kd) were fitted calculated according to the BIAevaluation software version 3.1 provided by the manufacturer. The affinity constant was calculated from the equation Kd=kd/ka.
To better define the interaction between LFA-1 and ESM-1, a real-time observation by BIAcore analysis was carried out. Sensor chip was filled with detergent lysates of Jurkat cells in order to capture functional LFA-1 molecules. […] The binding of heterodimeric LFA-1 to mAb coated chip was consistently detected. […] No interaction was detected between the mAb coated surface or control surface and ESM-1 at the highest concentration used in this experiment (data not shown).

[3] = molecular target: T4, 3D-ICAM-1/Fc chimeric protein (three first extracellular domains of ICAM-1 fused to the Fc fragment of human … (human, UniProt P05362 28-311, limits assumed, 35S methionine metabolic label in the ICAM-1 binding assays)); experiment: coprecipitation
T4 construct: domain: three first extracellular domains of ICAM-1; Expressed in 293 cells and purified on an anti-human Fc agarose column; also called soluble ICAM-1; soluble ICAM-1/Fc; not shown: Fc fragment of human IgG1

[4] = molecular target: T2, LFA-1 (heterodimeric CD11a/CD18); experiment: BIAcore, from the ratio of the rate constants; ESM-1 over LFA-1 captured by immobilized HI111
Protocol: The affinity constant was calculated from the equation Kd=kd/ka.
To better define the interaction between LFA-1 and ESM-1, a real-time observation by BIAcore analysis was carried out. Sensor chip was filled with detergent lysates of Jurkat cells in order to capture functional LFA-1 molecules. Specific binding of the heterodimeric form of LFA-1 to the anti-CD11a mAb coupled censorship was observed. In this assay, anti-CD11a mAb (HI111) was immobilized on the surface of the carboxymethyl 5 sensor chip as described in Materials and Methods. The binding of heterodimeric LFA-1 to mAb coated chip was consistently detected. The presence of both CD11a chain and CD18 chain was checked by injecting either another anti-CD11a mAb (G43-25B), or an anti-CD18 mAb in the LFA-1 captured channel. As reported in FIG. 18A, LFA-1 was strongly captured under its heterodimeric form, which was essential to keep functionality of LFA-1. Next, we have also examined the interaction of LFA-1 and purified human ESM-1 by BIAcore biosensor. […] No interaction was detected between the mAb coated surface or control surface and ESM-1 at the highest concentration used in this experiment (data not shown). Purified ESM-1 was then injected at indicated concentrations to the LFA-1 captured surface, and the response (in resonance units) versus time (in seconds) was recorded. […]

T2 sequence (P20701 26-1170, chain 1 of 2): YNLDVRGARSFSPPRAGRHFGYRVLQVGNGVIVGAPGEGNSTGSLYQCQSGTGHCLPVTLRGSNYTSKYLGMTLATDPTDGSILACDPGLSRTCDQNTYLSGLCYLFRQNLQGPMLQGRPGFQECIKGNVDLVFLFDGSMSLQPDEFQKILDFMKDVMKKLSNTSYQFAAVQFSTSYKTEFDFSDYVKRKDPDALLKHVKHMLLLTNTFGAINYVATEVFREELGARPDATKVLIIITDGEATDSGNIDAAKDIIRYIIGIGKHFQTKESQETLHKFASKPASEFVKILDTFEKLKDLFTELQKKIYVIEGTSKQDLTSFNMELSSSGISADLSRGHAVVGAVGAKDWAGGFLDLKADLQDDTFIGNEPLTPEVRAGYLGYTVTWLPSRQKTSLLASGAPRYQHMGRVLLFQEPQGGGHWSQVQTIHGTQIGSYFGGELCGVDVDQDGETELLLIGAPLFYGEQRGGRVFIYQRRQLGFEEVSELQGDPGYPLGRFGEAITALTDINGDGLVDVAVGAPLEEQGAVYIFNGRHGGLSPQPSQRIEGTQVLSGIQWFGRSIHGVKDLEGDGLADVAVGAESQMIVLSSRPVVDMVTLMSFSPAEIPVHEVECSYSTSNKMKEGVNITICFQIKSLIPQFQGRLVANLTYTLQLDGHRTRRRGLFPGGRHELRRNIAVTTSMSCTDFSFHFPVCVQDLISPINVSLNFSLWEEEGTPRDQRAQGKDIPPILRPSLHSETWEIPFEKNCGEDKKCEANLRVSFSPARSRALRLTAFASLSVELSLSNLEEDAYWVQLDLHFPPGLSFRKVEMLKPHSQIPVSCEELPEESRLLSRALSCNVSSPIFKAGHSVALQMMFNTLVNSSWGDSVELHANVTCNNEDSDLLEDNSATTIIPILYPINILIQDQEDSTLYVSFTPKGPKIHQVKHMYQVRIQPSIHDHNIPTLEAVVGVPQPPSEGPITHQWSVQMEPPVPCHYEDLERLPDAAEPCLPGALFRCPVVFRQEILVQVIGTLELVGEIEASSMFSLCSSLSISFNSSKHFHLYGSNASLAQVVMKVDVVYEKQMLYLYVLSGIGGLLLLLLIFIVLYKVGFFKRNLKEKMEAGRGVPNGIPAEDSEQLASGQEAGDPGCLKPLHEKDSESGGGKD
T2 sequence (P05107 23-769, chain 2 of 2): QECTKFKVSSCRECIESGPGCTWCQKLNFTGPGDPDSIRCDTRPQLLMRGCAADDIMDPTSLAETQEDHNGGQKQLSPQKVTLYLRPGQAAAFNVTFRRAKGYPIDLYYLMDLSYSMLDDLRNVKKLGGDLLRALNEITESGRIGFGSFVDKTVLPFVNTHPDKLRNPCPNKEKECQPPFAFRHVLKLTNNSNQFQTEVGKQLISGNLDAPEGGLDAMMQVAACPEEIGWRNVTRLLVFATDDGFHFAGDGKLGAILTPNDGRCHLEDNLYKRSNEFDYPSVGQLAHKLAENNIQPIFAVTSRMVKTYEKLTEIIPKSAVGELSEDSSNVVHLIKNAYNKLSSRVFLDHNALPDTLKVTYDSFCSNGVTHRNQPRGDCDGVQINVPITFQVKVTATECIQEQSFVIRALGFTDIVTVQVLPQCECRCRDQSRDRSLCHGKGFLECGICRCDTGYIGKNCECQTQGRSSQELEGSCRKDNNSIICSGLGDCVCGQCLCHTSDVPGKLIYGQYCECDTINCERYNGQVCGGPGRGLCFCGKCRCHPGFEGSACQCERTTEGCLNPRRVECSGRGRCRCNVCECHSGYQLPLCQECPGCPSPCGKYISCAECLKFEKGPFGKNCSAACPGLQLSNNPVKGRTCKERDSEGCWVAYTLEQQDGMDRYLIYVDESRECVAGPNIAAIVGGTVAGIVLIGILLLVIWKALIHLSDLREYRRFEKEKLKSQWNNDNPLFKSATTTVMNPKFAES
T4 sequence (P05362 28-311 limits assumed, stated change not applied): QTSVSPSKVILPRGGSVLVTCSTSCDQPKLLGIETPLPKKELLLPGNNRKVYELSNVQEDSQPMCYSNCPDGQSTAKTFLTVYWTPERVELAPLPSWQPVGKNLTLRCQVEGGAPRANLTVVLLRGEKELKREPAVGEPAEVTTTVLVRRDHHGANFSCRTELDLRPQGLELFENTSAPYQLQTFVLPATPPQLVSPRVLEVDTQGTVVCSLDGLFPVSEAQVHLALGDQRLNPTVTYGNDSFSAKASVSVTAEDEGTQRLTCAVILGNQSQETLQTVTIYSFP
T3 sequence (P16070 21-742): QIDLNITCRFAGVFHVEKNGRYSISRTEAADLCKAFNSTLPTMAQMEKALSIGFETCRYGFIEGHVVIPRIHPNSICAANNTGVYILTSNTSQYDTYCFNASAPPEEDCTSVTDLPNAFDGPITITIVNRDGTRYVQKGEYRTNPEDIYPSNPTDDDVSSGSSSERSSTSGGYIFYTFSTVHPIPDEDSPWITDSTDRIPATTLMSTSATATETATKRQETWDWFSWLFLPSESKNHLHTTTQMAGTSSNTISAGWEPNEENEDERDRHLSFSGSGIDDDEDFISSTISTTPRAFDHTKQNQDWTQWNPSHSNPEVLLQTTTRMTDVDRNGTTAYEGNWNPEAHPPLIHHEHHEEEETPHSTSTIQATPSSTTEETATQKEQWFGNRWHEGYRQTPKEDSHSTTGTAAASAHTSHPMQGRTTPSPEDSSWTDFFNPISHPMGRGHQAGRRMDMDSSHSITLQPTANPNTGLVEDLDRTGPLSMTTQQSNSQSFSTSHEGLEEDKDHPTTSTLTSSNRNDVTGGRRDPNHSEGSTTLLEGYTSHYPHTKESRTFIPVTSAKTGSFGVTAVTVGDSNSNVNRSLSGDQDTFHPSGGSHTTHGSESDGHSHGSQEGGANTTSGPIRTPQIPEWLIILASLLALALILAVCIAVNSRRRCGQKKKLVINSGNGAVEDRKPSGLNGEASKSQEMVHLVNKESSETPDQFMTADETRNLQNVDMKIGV

Row | labelled ICAM-1 still bound (cpm) [1] [cpm] | binding result (CD2 on Jurkat cells) | binding result (CD44 on Jurkat cells) | koff [2] [s⁻¹] | kon [2] [M⁻¹ s⁻¹] | binding result [3] | Kd [4] [nM] | Molecule
1 | 837 | – | – | – | – | – | – | anti-CD11a mAb clone HI111 (antibody)
2 | – | no binding | no binding | 0.000825 | 44100 | no binding | 18.7 | B1
